# Assay results as given in patent publication US9475855B2, “Human Notch3 based fusion proteins as decoy inhibitors of Notch3 signaling” (THE TRUSTEES OF COLUMBIA UNIVERSITY IN THE CITY OF NEW YORK, priority 2008, dated 2016).
# Legend:
# Assay type in all cases: cell-based, human
# [1] = tested on: Ad-VEGF-infected HUVEC; assay: VEGF-induced HUVEC budding (sprouting) on collagen gel; settings: for budding / morphology of HUVEC with Notch fusion protein alone: no Ad-VEGF
# Method: For making collagen gels, an ice-cold solution of porcine type I collagen (Nitta gelatin, Tokyo, Japan) was mixed with 10xRPMI1640 medium and neutralization buffer at the ratio of 8:1:1. 400 μl aliquots of collagen gel were then added to 24-well plates and allowed to gel for at least 1 hour at 37° C. Following adenoviral infection (above), HUVEC was harvested and plated at 1.3×10^5 cells per well onto the top of the collagen gel in 24-well plates in 0.8 ml of EGM2 medium. HUVEC became nearly confluent 48 hours after plating. After seeding, medium was changed every 2 days for 1 week. Sprouting was observed and photographs taken after 8 days with an Olympus digital camera mounted to a microscope. For quantification of the number of sprouts, 5 fields per each well were randomly selected and sprouting was counted under microscopy in a blind manner by two investigators.
# In this experiment, we evaluated the effect of Notch decoy on induction of budding (initiation of sprouting) by over-expressed VEGF-165 in HUVEC. When Ad-VEGF-infected HUVEC were cultured on type collagen gel for 8 days, budding was induced into collagen gel.
# [2] = tested on: MMP9; assay: gelatin zymography of conditioned medium, MMP-9; settings: co-transduction with Ad-VEGF, fibrin gel
# Method: FIGS. 24A-B show gelatin zymography analysis of MMP-9 and MMP-2 activity stimulated by VEGF in HUVEC. […] Transduced HUVEC were cultured on fibrin gel on the indicated day (i.e. D2, D4, D6, D8). Similar results were also obtained by using collagen gel, although induction of MMP-9 was stronger on fibrin gel than collagen gel (data not shown). […] HUVEC were transduced with Ad-N1ECDFc at the indicated doses and condition medium was collected from HUVEC cultured on collagen gel at day 4. FIGS. 24C-D show up-regulation of MMP-9 and MT1-MMP with Notch signaling. HUVEC were transduced with either Ad-LacZ or Ad-N1IC at 40 MOI. Numbers show PCR cycles. […] HUVEC were transduced with Ad-VEGF in the absence or presence of co-transduction of Ad-N1ECDFc at 40 MOI each. Ad-LacZ was co-transduced to make the same total amount of adenovirus at 80 MOI.
# Requisition of MMPs for angiogenic sprouting has been established by synthetic MMP inhibitors (16). GM6001 is one broad inhibitor against MMPs including MMP2, MMP9 and MT1-MMP (18).
# [3] = tested on: CBF1 promoter activity; assay: VEGF-induced Notch signaling, CBF1 promoter (CSL-luciferase) reporter activity in HUVEC; settings: for inhibition of CBF1 promoter activity induced by Ad-VEGF: 40 MOI for each adenovirus; for VEGF-induced CBF1 promoter / CSL-luciferase reporter activity: Ad-VEGF-transduced HUVEC
# Method: To determine VEGF-induced Notch signaling, HUVEC which were infected with adenovirus were used. HUVEC plated 1-day prior in 6 well plates at 8.0×10^5 were infected with either Ad-LacZ as control or Ad-VEGF at indicated m.o.i. in the presence or absence of Ad-N1ECD/Fc. Two days after infection, infected HUVEC were re-seeded into 24-well plate at 1.5×10^5 cell in triplicate and cultured for 24 hours, and then transfected with 12.5 ng pRL-SV40 (Promega) and 137.5 ng pGA981-6 using Effectene transfection reagent (Qiagen). Cells were harvested either 1 or 2 days post-transfection and luciferase activity was determined by using the Dual-Luciferase® Reporter Assay System (Promega).
# One can measure Notch signaling function by measuring transcriptional activity of CBF1 promoter, which is activated by binding of Notch-IC to CBF1. We measured CBF1 promoter activity in HUVEC which was infected with adenovirus encoding VEGF-165 at different MOI (FIG. 6). Induction of CBF1 promoter was clearly detected in Ad-VEGF-infected HUVEC, compared to Ad-LacZ-infected cells in the MOI dependent manner. […] Thus VEGF induced Notch signaling activity.
molecule,measurement,setting,value
"N1ECDFc: Notch-based fusion protein or decoy: Notch1 extracellular domain EGF repeats fused to Fc; expressed from plasmid or adenovirus (Ad-N1ECDFc) (protein, left off: a dimerising Fc or GST) ARGLRCSQPSGTCLNGGRCEVANGTEACVCSGAFVGQRCQDPSPCLSTPCKNAGTCYVVDHGGIVDYACSCPLGFSGPLCLTPLANACLANPCRNGGTCDLLTLTEYKCRCPPGWSGKSCQQADPCASNPCANGGQCLPFESSYICGCPPGFHGPTCRQDVNECSQNPGLCRHGGTCHNEIGSYRCACRATHTGPHCELPYVPCSPSPCQNGGTCRPTGDTTHECACLPGFAGQNCEENVDDCPGNNCKNGGACVDGVNTYNCRCPPEWTGQYCTEDVDECQLMPNACQNAGTCHNSHGGYNCVCVNGWTGEDCSDNIDDCASAACFQGATCHDRVASFYCECPHGRTGLLCHLNDACISNPCNEGSNCDTNPVNGKAICTCPRGYTGPACSQDVDECALGANPCEHAGKCLNTLGSFECQCLQGYTGPRCEIDVNECISNPCQNDATCLDQIGEFQCICMPGYEGVYCEINTDECASSPCLHNGRCVDKINEFLCQCPKGFSGHLCQYDVDECASTPCKNGAKCLDGPNTYTCVCTEGYTGTHCEVDIDECDPDPCHIGLCKDGVATFTCLCQPGYTGHHCETNINECHSQPCRHGGTCQDRDNYYLCLCLKGTTGPNCEINLDDCASNPCDSGTCLDKIDGYECACEPGYTGSMCNVNIDECAGSPCHNGGTCEDGIAGFTCRCPEGYHDPTCLSEVNECNSNPCIHGACRDGLNGYKCDCAPGWSGTNCDINNNECESNPCVNGGTCKDMTSGYVCTCREGFSGPNCQTNINECASNPCLNQGTCIDDVAGYKCNCPLPYTGATCEVVLAPCATSPCKNSGVCKESEDYESFSCVCPTGWQGQTCEIDINECVKSPCRHGASCQNTNGSYRCLCQAGYTGRNCESDIDDCRPNPCHNGGSCTDGVNAAFCDCLPGFQGAFCEEDINECATNPCQNGANCTDCVDSYTCTCPTGFNGIHCENNTPDCTESSCFNGGTCVDGINSFTCLCPPGFTGSYCQYDVNECDSRPCLHGGTCQDSYGTYKCTCPQGYTGLNCQNLVRWCDSAPCKNGGKCWQTNTQYHCECRSGWTGFNCDVLSVSCEVAAQKRGIDVTLLCQHGGLCVDEEDKHYCHCQAGYTGSYCEDEVDECSPNPCQNGATCTDYLGGFSCKCVAGYHGSNCSEEINECLSQPCQNGGTCIDLTNTYKCSCPRGTQGVHCEINVDDCHPPLDPASRSPKCFNNGTCVDQVGGYTCTCPPGFVGERCEGDVNECLSNPCDPRGTQNCVQRVNDFHCECRAGHTGRRCESVINGCRGKPCRNGGVCAVASNTARGFICRCPARFEGATCENDARTCGSLRCLNGGTCISGPRSPTCLCLGSFTGPECQFPASSPCVGSNPCYNQGTCEPTSESPFYRCLCPAKFNGLLCHILDYSFTDLGPG",cell number in VEGF-induced budding assay,[1]; FIG. 22I,without affecting cell number
same,budding of Ad-VEGF-HUVEC,[1]; collagen gel,clearly inhibited
same,budding / morphology of HUVEC with Notch fusion protein alone,[1],Neither Ad-LacZ or Ad-N1ECDFc-transduced HUVEC formed buds
same,budding / morphology of HUVEC with Notch fusion protein alone,[1]; listed as Notch fusion protein,less effect on morphology
same,induction and activation of MMP9,[2],inhibition
same,inhibition of CBF1 promoter activity induced by Ad-VEGF,[3]; 24 hr after reporter gene transfection,60%
same,inhibition of CBF1 promoter activity induced by Ad-VEGF,[3]; 48 hr after reporter gene transfection,90%
same,VEGF-induced CBF1 promoter / CSL-luciferase reporter activity,[3],clearly decreased
same,VEGF-induced CBF1 promoter / CSL-luciferase reporter activity,[3]; listed as Notch fusion protein,clearly reduced
